Among the data in patent US20190262398, “TIM3 HOMING ENDONUCLEASE VARIANTS, COMPOSITIONS, AND METHODS OF USE” (bluebird bio, Inc., published 2019) are activity and Kd values, retold here.

Bounds are passed on as bounds.

Data set [1] addresses T1, TIM3_rd3.22 HE (I-OnuI variant), mammalian expression (Artificial (I-OnuI from Ophiostoma …)).
T1 chain: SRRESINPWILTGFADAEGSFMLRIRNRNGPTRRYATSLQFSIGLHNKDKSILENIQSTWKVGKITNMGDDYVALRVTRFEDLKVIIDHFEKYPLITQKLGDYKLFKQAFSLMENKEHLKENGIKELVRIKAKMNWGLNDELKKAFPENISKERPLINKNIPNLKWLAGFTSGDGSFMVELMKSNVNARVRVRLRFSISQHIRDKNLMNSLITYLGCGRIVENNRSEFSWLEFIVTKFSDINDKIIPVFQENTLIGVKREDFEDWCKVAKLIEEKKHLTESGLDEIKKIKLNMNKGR
As to the kind of experiment: cell_activity; HEK293T chromosomal mCherry reporter; approx 4-fold higher rate of mCherry cells after refinement. The method, then:
The activity of reprogrammed I-OnuI HEs that target exon 2 of the TIM3 gene was measured using a chromosomally integrated fluorescent reporter system (Certo et. al., 2011). Fully reprogrammed I-OnuI HEs that bind and cleave the TIM3 target sequence were cloned into mammalian expression plasmids and then individually transfected into a HEK 293T […] cell line that was reprogrammed to contain the TIM3 target sequence upstream of an out-of-frame gene encoding the fluorescent mCherry protein. Cleavage of the embedded target site by the HE and the subsequent accumulation of small insertions or deletions, caused by DNA repair via the non-homologous end joining (NHEJ) pathway, results in approximately one out of three repaired loci placing the fluorescent reporter gene back “in-frame”. mCherry fluorescence is therefore a readout of endonuclease activity at the chromosomally embedded target sequence. […] FIG. 3 (top panel).
A secondary I-OnuI variant library was generated by performing random mutagenesis on one of the reprogrammed I-OnuI HEs that targets the TIM3 target site identified in the initial reporter screen (TIM3_rd1.12, SEQ ID NO: 6). In addition, display-based flow sorting was performed under more stringent cleavage conditions in an effort to isolate variants with improved catalytic efficiency. FIG. 3 (middle panel). […]

The target of data set [2] is T2, TIM3_rd3.22 HE (I-OnuI variant) (Artificial (I-OnuI from Ophiostoma …)).
T2 chain: T1 chain
The experiment in a line: flow; yeast surface display substrate titration; stated as subnanomolar affinity. The conditions noted are these: tags: yeast surface display.

B1: TIM3 exon 2 HE target site (dsDNA)
DNA 1: TGTCCAATAATTCACATCCCTT
DNA 2: AAGGGATGTGAATTATTGGACA
One may read the Kd as the free concentration of one partner at which half of the binding sites on the other are occupied at equilibrium, for simple one-to-one binding. Low values mean higher affinity, high ones lower affinity. B1 registered an activity in data set [1] of roughly 4 fold. The Kd in data set [2] was less than 1 nM.
